Experiment [1] has as its target T1, human 4-1BB (human, UniProt Q07011 24-255).
T1 construct: whole, on cells; also called CD137; TNFRSF9
Put plainly: FACS, CHO-K1/hu 4-1BB cells [F]. On the technique in general: Flow cytometry measures light scatter and fluorescence of single cells or particles in a stream.
Description: (§1) This example is intended to investigate the in vitro binding activity of anti-human 4-1BB HCAb and H2L2 monoclonal antibodies to human and cynomolgus monkey 4-1BB. Antibody binding experiments at the cellular level were conducted using a CHO-K1 cell strain overexpressing human 4-1BB (CHO-K1-hu 4-1BB, Genescript) and a CHO-K1 cell strain overexpressing cynomolgus monkey 4-1BB (CHO-K1-cyno 4-1BB, Genescript). Briefly, the CHO-K1-hu 4-1BB and CHO-K1-cyno 4-1BB cells were digested and resuspended in DMEM complete medium, and the cell density was adjusted to 1×10⁶ cells/mL. […] The cells were incubated at 4° C. for 1 h away from light. Thereafter, the cells in each well were rinsed twice with 100 μL of pre-cooled PBS, and centrifuged at 500 g at 4° C. for 5 min, and then the supernatant was discarded. […] The plate was incubated away from light at 4° C. for 30 min. The cells in each well were rinsed twice with 100 μL of pre-cooled PBS, and centrifuged at 500 g at 4° C. for 5 min, and then the supernatant was discarded. Finally, the cells in each well were resuspended in 200 μL of pre-cooled PBS, and the fluorescence signal values were read using a BD FACS CANTOII.

Experiment [2] has as its target T2, cynomolgus monkey 4-1BB (cynomolgus monkey).
T2 construct: whole, on cells; also called CHO-K1-cyno 4-1BB; CHO-K1/cyno4-1BB
Description: FACS, CHO-K1/cyno 4-1BB cells [F].
Description: as §1

A further experiment concerns the target T3, mouse B7-H4 (mouse, UniProt Q7TSP5 25-257).
T3 construct: whole, on cells; also called CHO-K1/m B7-H4; CHO-K1/mB7-H4
T3 sequence (looked up): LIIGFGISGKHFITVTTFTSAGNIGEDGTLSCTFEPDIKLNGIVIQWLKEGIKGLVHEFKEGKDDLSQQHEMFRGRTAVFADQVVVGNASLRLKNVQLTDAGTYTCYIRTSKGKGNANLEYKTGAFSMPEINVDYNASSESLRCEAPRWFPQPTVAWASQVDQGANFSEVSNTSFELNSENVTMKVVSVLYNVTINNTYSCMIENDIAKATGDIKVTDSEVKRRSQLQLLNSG
Description: FACS, CHO-K1/m B7H4 cells [C].

The target of another experiment is T4, human B7-H4 (human, UniProt Q7Z7D3 25-282).
T4 construct: whole, on cells; also called VTCN1; SK-BR-3 cell line highly expressing B7-H4
T4 sequence (looked up): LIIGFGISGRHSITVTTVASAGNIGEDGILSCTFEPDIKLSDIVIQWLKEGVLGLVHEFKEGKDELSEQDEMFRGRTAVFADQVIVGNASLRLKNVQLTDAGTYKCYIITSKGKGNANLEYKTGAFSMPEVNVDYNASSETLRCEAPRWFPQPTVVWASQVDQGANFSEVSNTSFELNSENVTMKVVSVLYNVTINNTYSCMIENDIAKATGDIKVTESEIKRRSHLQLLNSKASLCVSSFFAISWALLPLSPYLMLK
Description: FACS, SK-BR-3 cells [A].

In the next experiment the target is T5, cynomolgus monkey B7-H4 (cynomolgus monkey, UniProt A0A2K5U6P5 25-282).
T5 construct: whole, on cells; also called CHO-K1/cyno B7-H4; CHO-K1/cynoB7H4
T5 sequence: T4 sequence (looked up) with L53I, F242L, S252A
Description: FACS, CHO-K1/cyno B7H4 cells [B].

Experiment [3] concerns the target T1, human 4-1BB. Description: FACS, CHO-K1/hu 4-1BB cells [A].
Description: as §1
Experiment [4] addresses T2, cynomolgus monkey 4-1BB. Description: FACS, CHO-K1/cyno 4-1BB cells [B].
Description: as §1
Experiment [5] deals with T1, human 4-1BB. Put plainly: FACS, CHO-K1/hu 4-1BB cells [C].
Description: as §1
Experiment [6] has as its target T2, cynomolgus monkey 4-1BB. Put plainly: FACS, CHO-K1/cyno 4-1BB cells [C].
Description: as §1
The target of experiment [7] is T2, cynomolgus monkey 4-1BB. Put plainly: FACS, CHO-K1/cyno 4-1BB cells [E].
Description: as §1
The target in experiment [8] is T1, human 4-1BB. Put plainly: FACS, CHO-K1/hu 4-1BB cells [B].
Description: as §1
Experiment [9] concerns the target T1, human 4-1BB. Description: FACS, CHO-K1/hu 4-1BB cells [E].
Description: (§2) Antibody binding experiments at the cellular level were conducted using a CHO-K1 cell strain overexpressing human 4-1BB (CHO-K1-hu 4-1BB, Genescript) and a CHO-K1 cell strain overexpressing cynomolgus monkey 4-1BB (CHO-K1-cyno 4-1BB, Genescript). Briefly, the CHO-K1-hu 4-1BB and CHO-K1-cyno 4-1BB cells were digested and resuspended in DMEM complete medium, and the cell density was adjusted to 1×10⁶ cells/mL. […] The cells were incubated at 4° C. for 1 h away from light. Thereafter, the cells in each well were rinsed twice with 100 μL of pre-cooled PBS, and centrifuged at 500 g at 4° C. for 5 min, and then the supernatant was discarded. […] The plate was incubated away from light at 4° C. for 30 min. The cells in each well were rinsed twice with 100 μL of pre-cooled PBS, and centrifuged at 500 g at 4° C. for 5 min, and then the supernatant was discarded. Finally, the cells in each well were resuspended in 200 μL of pre-cooled PBS, and the fluorescence signal values were read using a BD FACS CANTOII.
Experiment [10] concerns the target T2, cynomolgus monkey 4-1BB. Description: FACS, CHO-K1/cyno 4-1BB cells [A].
Description: as §1
The target in experiment [11] is T2, cynomolgus monkey 4-1BB. Put plainly: FACS, CHO-K1/cyno 4-1BB cells [D].
Description: as §1
Experiment [12] deals with T1, human 4-1BB. Description: FACS, CHO-K1/hu 4-1BB cells [D].
Description: as §2

Numbering of substitutions follows the chain as printed.

T1 sequence (Q07011 24-255): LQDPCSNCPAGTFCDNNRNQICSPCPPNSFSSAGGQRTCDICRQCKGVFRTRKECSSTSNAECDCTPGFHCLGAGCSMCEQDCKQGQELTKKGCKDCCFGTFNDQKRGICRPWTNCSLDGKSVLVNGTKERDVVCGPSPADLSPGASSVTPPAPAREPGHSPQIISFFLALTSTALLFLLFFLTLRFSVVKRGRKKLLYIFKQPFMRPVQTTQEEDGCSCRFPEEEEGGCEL
Description for cynomolgus monkey B7-H4: (§3) This example is intended to investigate the in vitro binding activity of anti-human B7-H4 H2L2 monoclonal antibody to human/cynomolgus monkey/mouse B7-H4. Antibody binding experiments at the cellular level were conducted using a CHO-K1 cell strain overexpressing cynomolgus monkey B7-H4 (CHO-K1/cyno B7-H4, prepared in-house by Harbour Biomed), a CHO-K1 cell strain overexpressing mouse B7-H4 (CHO-K1/m B7-H4, prepared in-house by Harbour Biomed) and an SK-BR-3 cell line highly expressing human B7-H4 (ATCC® HTB-30). Briefly, the CHO-K1/cyno B7-H4 cells, CHO-K1/m B7-H4 cells or SK-BR-3 cells were digested and resuspended with PBS containing 2% BSA. The cell density was adjusted to 1×10⁶ cells/mL. […] The cells were incubated at 4° C. for 2 h away from light. Thereafter, the cells in each well were rinsed twice with 100 μL of pre-cooled PBS containing 2% BSA, and centrifuged at 500 g at 4° C. for 5 min, and then the supernatant was discarded. […] The plate was incubated away from light at 4° C. for 1 h. The cells in each well were rinsed twice with 100 μL of pre-cooled PBS containing 2% BSA, and centrifuged at 500 g at 4° C. for 5 min, and then the supernatant was discarded. Finally, the cells in each well were resuspended in 200 μL of pre-cooled PBS containing 2% BSA, and the fluorescence signal values were read using an ACEA Novocyte3000 flow cytometer.
Description for human B7-H4: as §3
Description for mouse B7-H4: as §3

B1: PR001840 (antibody, human IgG1, V domains shown)
VH: EVQLVESGGGLVQPGGSLRLSCAASGFTFSSYWMHWVRQAPGKGLVWVSRINSDGSSTSYADSVQGRFTISRDNAKNTLYLQMNSLRAEDTAVYYCVRKGSSSYYHYSIEDDWGQGTLVTVSS
notes: anti-4-1BB HCAb, human IgG1 Fc
By EC50 is commonly meant the midpoint of the concentration-response curve. Consider B1, for which, in the experiment with human 4-1BB [1], the EC50 stood at 0.37 nM and the “Maximum MFI” value amounted to 1670 MFI. In the experiment with cynomolgus monkey 4-1BB [2], it took 1.25 nM to reach a half-maximal effect (EC50) and the “Maximum MFI” value stood at 7300 MFI.

B2: PR002037 (antibody, human IgG1, kappa, V domains shown)
VH: QVQLVQSGAEVKKPGSSMRVSCKASEDTFSSYAISWVRQAPGQGLEWMGGTAPIFGTTNYAQKFQGRVTITADKSTSTAYMELSSLRSEDTAVYYCARGGPYFDYWGQGTLVTVSS
VL: EIVMTQSPASLSVSPGERATLSCRASQSVSSNLAWYQQKPGQAPRLLIYGASTRATGIPARVSGGGSGTEFTLTISSLQSEDFAVYCCQQYKNWPFTFGPGTKLEIKR
notes: also called 1025_B-1H11 clone
Regarding B2, the EC50 in the experiment with mouse B7-H4 was 2.57 nM; in the experiment with human B7-H4 it was 2.22 nM; with cynomolgus monkey B7-H4, 2.38 nM. The entries for the “Maximum MFI” value with mouse B7-H4, with human B7-H4 and with cynomolgus monkey B7-H4 were 1.69e+06 MFI, 257000 MFI and 1.92e+06 MFI, respectively.

B3: PR002410 (antibody, human IgG1, kappa, V domains shown)
VH: B2 VH
VL: B2 VL with C87Y
notes: anti-B7-H4 H2L2 recombinant fully human antibody, human IgG1 / kappa; also called PR002037 variant
As for B3, the EC50 worked out at 2.38 nM with mouse B7-H4, 1.87 nM in the experiment with human B7-H4 and 2.08 nM in the experiment with cynomolgus monkey B7-H4. Moreover, the “Maximum MFI” value with mouse B7-H4 amounted to 1.55e+06 MFI; with human B7-H4 it was 245000 MFI; with cynomolgus monkey B7-H4, 1.86e+06 MFI.

B4: PR001763 (antibody, human IgG1, V domains shown)
VH: EVQLLESGGGLVQPGGSLRLSCTASGFTFSNYAMSWVRQAPEKGLEWVSSISGSGGSTFYADSVKGRFTISRDNSKNTLYLQMNRLTAEDTAVYYCAKEGSNGTDDYHYDIDVWGQGTTVTVSS
notes: as for B1
As to B4, in the experiment with human 4-1BB [3], the EC50 came out at 0.616 nM and the “Maximum MFI” value was 1600 MFI. Besides, the “Maximum MFI” value with cynomolgus monkey 4-1BB [4] worked out at 57700 MFI.

B5: PR001774 (antibody, human IgG1, V domains shown)
VH: EVQLVESGGGLVQPGGSLRLSCAASGFTFSSFAMTWVRQAPEKGLEWVSTISGSGDTTYYADSVKGRFTISRDSSKNTLYLQMNSLRAEDSAVYFCAKEATAMASDYYYGVDVWGQGTTVTVSS
notes: as for B1
For B5, in the experiment with human 4-1BB [5], it took 1.27 nM to reach a half-maximal effect (EC50) and the “Maximum MFI” value stood at 1540 MFI. In the experiment with cynomolgus monkey 4-1BB [6], the midpoint of the response, the EC50, lay at 6.73 nM and the “Maximum MFI” value was 48000 MFI.

B6: PR001836 (antibody, human IgG1, V domains shown)
VH: EVQLLESGGGLVQPGGSLRLSCAASGFIFSNFAMTWVRQPPEKGLKWVSSINGSGFNTYYTDSVKGRFTISRDNSRNTLYLQMNRLTAEDTAVYFCAKEGSSETDDHYYNVDVWGQGTTVTVSS
notes: as for B1
B6: in the experiment with human 4-1BB [1], a half-maximal response (EC50) required 0.28 nM and the “Maximum MFI” value came out at 1830 MFI. For the same molecule, in the experiment with cynomolgus monkey 4-1BB [7], the EC50 came out at 2.41 nM and the “Maximum MFI” value worked out at 15900 MFI.

B7: PR001767 (antibody, human IgG1, V domains shown)
VH: EVQLVETGGGLIQPGGSLRLSCAASGFTVSSNYMSWVRQAPGKGLEWVSVIYSDGSTYYADSVKGRFTISRDNSKNTLYLQMNSLRAEDTAVYYCARDRYYGSGNYPTAYYGMDVRGQGTTVTVSS
notes: as for B1
Turning to B7, in the experiment with cynomolgus monkey 4-1BB [4], the EC50 amounted to 25 nM and the “Maximum MFI” value came out at 68400 MFI. For the same molecule, in the experiment with human 4-1BB [8], the EC50 worked out at 5.87 nM and the “Maximum MFI” value came to 1450 MFI.

B8: PR001764 (antibody, human IgG1, V domains shown)
VH: EVQLLESGGGLVQPGGSLRLSCAASGFTFSSYAMSWVRQAPEKGLEWVSAISGGGGSTYYADSVKGRFTISRDNSKNTLYLQMDSLKAEDTAVYYCAKEGTTETDDYHYNMDVWGQGTTVTVSS
notes: as for B1
For the molecule B8, the EC50 with cynomolgus monkey 4-1BB [4] came out at 5.33 nM; with human 4-1BB [8] it was 0.249 nM. Further, the entries for the “Maximum MFI” value with cynomolgus monkey 4-1BB [4] and with human 4-1BB [8] were 77300 MFI and 1560 MFI, respectively.

B9: PR001833 (antibody, human IgG1, V domains shown)
VH: B8 VH with A50S, G54S, Y59F, D84N, K87R, Y95F, T101A, Y109F, M111T
notes: as for B1
As to B9, in the experiment with cynomolgus monkey 4-1BB [7], the EC50 is 1.02 nM and the “Maximum MFI” value was 12600 MFI. In the experiment with human 4-1BB [9], the EC50 turned out to be 0.21 nM and the “Maximum MFI” value amounted to 1710 MFI.

B10: PR001768 (antibody, human IgG1, V domains shown)
VH: EVQLLESGGGLVQPGGSLRLSCAASGFTFSNYAMTWVRQAPGKGLEWVSSISGSGDSTYYADSVKGRFTISRDNSKNTLYLQMNSLRAEDTAVYYCAKEGTGTTSDYYYNVDVWGQGTTVTVSS
notes: as for B1
As for B10, in the experiment with cynomolgus monkey 4-1BB [6], the EC50 amounted to 6.97 nM and the “Maximum MFI” value worked out at 62200 MFI. Moreover, in the experiment with human 4-1BB [8], the response was half-maximal at 0.846 nM (EC50) and the “Maximum MFI” value came out at 1550 MFI.

B11: PR001771 (antibody, human IgG1, V domains shown)
VH: B10 VH with A40P, D56G
notes: as for B1
With B11, the results for the EC50 in the experiment with human 4-1BB [5] and with cynomolgus monkey 4-1BB [6] were 0.532 nM and 3.77 nM, respectively. The “Maximum MFI” value came out at 1720 MFI in the experiment with human 4-1BB [5] and 65700 MFI with cynomolgus monkey 4-1BB [6].

B12: PR001758 (antibody, human IgG1, V domains shown)
VH: EVQLLESGGGLVQLGGSLRLSCAASGFTFSRYAMTWVRQAPEKGLEWVSSISGSGDDTYYGDSVKGRFTISRDNSQNTVYLQMNSLRAEDTAVYFCAKEKAGTTGDYYYNVDVWGQGTTVTVSS
notes: anti-4-1BB fully human heavy-chain-only antibody (HCAb): VH fused to human IgG1 Fc
Take B12: in the experiment with cynomolgus monkey 4-1BB [10], a half-maximal effect (EC50) was put at 0.575 nM and the “Maximum MFI” value came out at 11200 MFI. In the experiment with human 4-1BB [3], the 50% effective concentration (EC50) amounted to 0.212 nM and the “Maximum MFI” value worked out at 1640 MFI.

B13: PR001781 (antibody, human IgG1, V domains shown)
VH: B10 VH with P14L, N31S, G42E, D56G, S57N, G100R, S105G
notes: as for B1
For the molecule B13, the values for the EC50 in the experiment with cynomolgus monkey 4-1BB [11] and with human 4-1BB [12] were 3.1 nM and 0.492 nM, respectively. The “Maximum MFI” value turned out to be 58300 MFI with cynomolgus monkey 4-1BB [11] and 1760 MFI with human 4-1BB [12].

B14: PR001830 (antibody, human IgG1, V domains shown)
VH: B4 VH with R85S, T87R, Y95F, N102S, G103E, Y107H, H108Y, D110N, I111V
notes: as for B1
For B14, in the experiment with cynomolgus monkey 4-1BB [7], a half-maximal effect (EC50) was put at 0.899 nM and the “Maximum MFI” value worked out at 14000 MFI. In the experiment with human 4-1BB [9], the EC50 was determined as 0.209 nM and the “Maximum MFI” value was 1830 MFI.

B15: PR001780 (antibody, human IgG1, V domains shown)
VH: B5 VH with V5L, V12I, E42G, T57N, S74N, S91T, A100D, M103V, G110N, V111I
notes: as for B1
As to B15, in the experiment with cynomolgus monkey 4-1BB [11], the EC50 is 2.99 nM and the “Maximum MFI” value is 55500 MFI. For the same molecule, in the experiment with human 4-1BB [12], the EC50 is 0.708 nM and the “Maximum MFI” value amounted to 1700 MFI.

B16: PR001476 (antibody, human IgG1, kappa, V domains shown)
VH: QVQLVESGGGVVQPGRSLRLSCAASGFTFRSFGMHWVRQAPGKGLEWVAVISYDGSNEYYADSVKGRFIISRDNSKDTLYLQMNSLRAGDTAVYYCAKGGGLRWYFAYWGQGTLVTVSS
VL: EIVMTQSPATLSVSPGERATLSCRASQSISSNLGWYQQKPGQAPRLLIYGASTRATGIPARFSGSGSGTEFTLTISSLQSEDFAVYYCQQYNSWPPLTFGGGTKVEIKR
notes: anti-B7-H4 H2L2 recombinant fully human antibody, human IgG1 / kappa; also called 80C8-2E9 clone
In the case of B16, the EC50 with mouse B7-H4 came out at 3.61 nM; with human B7-H4, 0.367 nM; in the experiment with cynomolgus monkey B7-H4 it was 1.1 nM. In addition, the figures for the “Maximum MFI” value with mouse B7-H4, in the experiment with human B7-H4 and with cynomolgus monkey B7-H4 were 353000 MFI, 239000 MFI and 1.82e+06 MFI, respectively.
